Target: semiSWEET
Test: native MS

Substance: semiSWEET (natural protein)
- stoichiometry N: 2

— article PMC6049616
